# Source: doi:10.1101/2024.12.12.628227 (bioRxiv, 2024)
# Target: human AXL Ig1 domain fused to human Fc (Homo sapiens, UniProt P30530)
# Assay: BLI
row,Binder,binding result
1,"parental scFv-osmY fusion protein (tilvestamab scFv) (scFv, V domains shown) VH: EVQLVESGGGLVQPGGSLRLSCAASGYSFTDFYINWVRQAPGKGLEWVARIFPGGDNTYYNEKFKGRFTLSADTSKSTAYLQMNSLRAEDTAVYYCARRGLYYAMDYWGQGTLVTVSS VL: DIQMTQSPSSLSASVGDRVTITCRSSQSLVHSNGIPYLHWYQQKPGKAPKLLIYRVSNRFSGVPSRFSGSGSGTDFTLTISSLQPEDFATYYCSQGTHVPPTFGQGTKVEIK",binds
2,"tilvestamab scFv-osmY G233S (scFv, V domains shown) VH: EVQLVESGGGLVQPGGSLRLSCAASGYSFTDFYINWVRQAPGKGLEWVARIFPGGDNTYYNEKFKGRFTLSADTSKSTAYLQMNSLRAEDTAVYYCARRGLYYAMDYWGQGTLVTVSS VL: DIQMTQSPSSLSASVGDRVTITCRSSQSLVHSNGIPYLHWYQQKPGKAPKLLIYRVSNRFSGVPSRFSGSGSGTDFTLTISSLQPEDFATYYCSQSTHVPPTFGQGTKVEIK",binds
3,"tilvestamab scFv-osmY Y103S (scFv, V domains shown) VH: EVQLVESGGGLVQPGGSLRLSCAASGYSFTDFYINWVRQAPGKGLEWVARIFPGGDNTYYNEKFKGRFTLSADTSKSTAYLQMNSLRAEDTAVYYCARRGLSYAMDYWGQGTLVTVSS VL: DIQMTQSPSSLSASVGDRVTITCRSSQSLVHSNGIPYLHWYQQKPGKAPKLLIYRVSNRFSGVPSRFSGSGSGTDFTLTISSLQPEDFATYYCSQGTHVPPTFGQGTKVEIK",binds
4,"tilvestamab scFv-osmY Y108A (scFv, V domains shown) VH: EVQLVESGGGLVQPGGSLRLSCAASGYSFTDFYINWVRQAPGKGLEWVARIFPGGDNTYYNEKFKGRFTLSADTSKSTAYLQMNSLRAEDTAVYYCARRGLYYAMDAWGQGTLVTVSS VL: DIQMTQSPSSLSASVGDRVTITCRSSQSLVHSNGIPYLHWYQQKPGKAPKLLIYRVSNRFSGVPSRFSGSGSGTDFTLTISSLQPEDFATYYCSQGTHVPPTFGQGTKVEIK",binds
5,"tilvestamab scFv-osmY L102A (scFv, V domains shown) VH: EVQLVESGGGLVQPGGSLRLSCAASGYSFTDFYINWVRQAPGKGLEWVARIFPGGDNTYYNEKFKGRFTLSADTSKSTAYLQMNSLRAEDTAVYYCARRGAYYAMDYWGQGTLVTVSS VL: DIQMTQSPSSLSASVGDRVTITCRSSQSLVHSNGIPYLHWYQQKPGKAPKLLIYRVSNRFSGVPSRFSGSGSGTDFTLTISSLQPEDFATYYCSQGTHVPPTFGQGTKVEIK",binds
6,"tilvestamab scFv-osmY L102S (scFv, V domains shown) VH: EVQLVESGGGLVQPGGSLRLSCAASGYSFTDFYINWVRQAPGKGLEWVARIFPGGDNTYYNEKFKGRFTLSADTSKSTAYLQMNSLRAEDTAVYYCARRGSYYAMDYWGQGTLVTVSS VL: DIQMTQSPSSLSASVGDRVTITCRSSQSLVHSNGIPYLHWYQQKPGKAPKLLIYRVSNRFSGVPSRFSGSGSGTDFTLTISSLQPEDFATYYCSQGTHVPPTFGQGTKVEIK",binds
7,"tilvestamab scFv-osmY F33A (scFv, V domains shown) VH: EVQLVESGGGLVQPGGSLRLSCAASGYSFTDAYINWVRQAPGKGLEWVARIFPGGDNTYYNEKFKGRFTLSADTSKSTAYLQMNSLRAEDTAVYYCARRGLYYAMDYWGQGTLVTVSS VL: DIQMTQSPSSLSASVGDRVTITCRSSQSLVHSNGIPYLHWYQQKPGKAPKLLIYRVSNRFSGVPSRFSGSGSGTDFTLTISSLQPEDFATYYCSQGTHVPPTFGQGTKVEIK",binds
8,"tilvestamab scFv-osmY L102T (scFv, V domains shown) VH: EVQLVESGGGLVQPGGSLRLSCAASGYSFTDFYINWVRQAPGKGLEWVARIFPGGDNTYYNEKFKGRFTLSADTSKSTAYLQMNSLRAEDTAVYYCARRGTYYAMDYWGQGTLVTVSS VL: DIQMTQSPSSLSASVGDRVTITCRSSQSLVHSNGIPYLHWYQQKPGKAPKLLIYRVSNRFSGVPSRFSGSGSGTDFTLTISSLQPEDFATYYCSQGTHVPPTFGQGTKVEIK",binds
9,"tilvestamab scFv-osmY G101A (scFv, V domains shown) VH: EVQLVESGGGLVQPGGSLRLSCAASGYSFTDFYINWVRQAPGKGLEWVARIFPGGDNTYYNEKFKGRFTLSADTSKSTAYLQMNSLRAEDTAVYYCARRALYYAMDYWGQGTLVTVSS VL: DIQMTQSPSSLSASVGDRVTITCRSSQSLVHSNGIPYLHWYQQKPGKAPKLLIYRVSNRFSGVPSRFSGSGSGTDFTLTISSLQPEDFATYYCSQGTHVPPTFGQGTKVEIK",binds
10,"tilvestamab scFv-osmY Y103A (scFv, V domains shown) VH: EVQLVESGGGLVQPGGSLRLSCAASGYSFTDFYINWVRQAPGKGLEWVARIFPGGDNTYYNEKFKGRFTLSADTSKSTAYLQMNSLRAEDTAVYYCARRGLAYAMDYWGQGTLVTVSS VL: DIQMTQSPSSLSASVGDRVTITCRSSQSLVHSNGIPYLHWYQQKPGKAPKLLIYRVSNRFSGVPSRFSGSGSGTDFTLTISSLQPEDFATYYCSQGTHVPPTFGQGTKVEIK",binds
11,"tilvestamab scFv-osmY F33T (scFv, V domains shown) VH: EVQLVESGGGLVQPGGSLRLSCAASGYSFTDTYINWVRQAPGKGLEWVARIFPGGDNTYYNEKFKGRFTLSADTSKSTAYLQMNSLRAEDTAVYYCARRGLYYAMDYWGQGTLVTVSS VL: DIQMTQSPSSLSASVGDRVTITCRSSQSLVHSNGIPYLHWYQQKPGKAPKLLIYRVSNRFSGVPSRFSGSGSGTDFTLTISSLQPEDFATYYCSQGTHVPPTFGQGTKVEIK",binds
12,"tilvestamab scFv-osmY P238A (scFv, V domains shown) VH: EVQLVESGGGLVQPGGSLRLSCAASGYSFTDFYINWVRQAPGKGLEWVARIFPGGDNTYYNEKFKGRFTLSADTSKSTAYLQMNSLRAEDTAVYYCARRGLYYAMDYWGQGTLVTVSS VL: DIQMTQSPSSLSASVGDRVTITCRSSQSLVHSNGIPYLHWYQQKPGKAPKLLIYRVSNRFSGVPSRFSGSGSGTDFTLTISSLQPEDFATYYCSQGTHVPATFGQGTKVEIK",binds
13,"tilvestamab scFv-osmY T31A (scFv, V domains shown) VH: EVQLVESGGGLVQPGGSLRLSCAASGYSFADFYINWVRQAPGKGLEWVARIFPGGDNTYYNEKFKGRFTLSADTSKSTAYLQMNSLRAEDTAVYYCARRGLYYAMDYWGQGTLVTVSS VL: DIQMTQSPSSLSASVGDRVTITCRSSQSLVHSNGIPYLHWYQQKPGKAPKLLIYRVSNRFSGVPSRFSGSGSGTDFTLTISSLQPEDFATYYCSQGTHVPPTFGQGTKVEIK",binds
14,"tilvestamab scFv-osmY I35A (scFv, V domains shown) VH: EVQLVESGGGLVQPGGSLRLSCAASGYSFTDFYANWVRQAPGKGLEWVARIFPGGDNTYYNEKFKGRFTLSADTSKSTAYLQMNSLRAEDTAVYYCARRGLYYAMDYWGQGTLVTVSS VL: DIQMTQSPSSLSASVGDRVTITCRSSQSLVHSNGIPYLHWYQQKPGKAPKLLIYRVSNRFSGVPSRFSGSGSGTDFTLTISSLQPEDFATYYCSQGTHVPPTFGQGTKVEIK",binds
15,"tilvestamab scFv-osmY G233A (scFv, V domains shown) VH: EVQLVESGGGLVQPGGSLRLSCAASGYSFTDFYINWVRQAPGKGLEWVARIFPGGDNTYYNEKFKGRFTLSADTSKSTAYLQMNSLRAEDTAVYYCARRGLYYAMDYWGQGTLVTVSS VL: DIQMTQSPSSLSASVGDRVTITCRSSQSLVHSNGIPYLHWYQQKPGKAPKLLIYRVSNRFSGVPSRFSGSGSGTDFTLTISSLQPEDFATYYCSQATHVPPTFGQGTKVEIK",binds
16,"tilvestamab scFv-osmY L102Y (scFv, V domains shown) VH: EVQLVESGGGLVQPGGSLRLSCAASGYSFTDFYINWVRQAPGKGLEWVARIFPGGDNTYYNEKFKGRFTLSADTSKSTAYLQMNSLRAEDTAVYYCARRGYYYAMDYWGQGTLVTVSS VL: DIQMTQSPSSLSASVGDRVTITCRSSQSLVHSNGIPYLHWYQQKPGKAPKLLIYRVSNRFSGVPSRFSGSGSGTDFTLTISSLQPEDFATYYCSQGTHVPPTFGQGTKVEIK",binds
17,"tilvestamab scFv-osmY M106A (scFv, V domains shown) VH: EVQLVESGGGLVQPGGSLRLSCAASGYSFTDFYINWVRQAPGKGLEWVARIFPGGDNTYYNEKFKGRFTLSADTSKSTAYLQMNSLRAEDTAVYYCARRGLYYAADYWGQGTLVTVSS VL: DIQMTQSPSSLSASVGDRVTITCRSSQSLVHSNGIPYLHWYQQKPGKAPKLLIYRVSNRFSGVPSRFSGSGSGTDFTLTISSLQPEDFATYYCSQGTHVPPTFGQGTKVEIK",binds
18,"tilvestamab scFv-osmY F33Y (scFv, V domains shown) VH: EVQLVESGGGLVQPGGSLRLSCAASGYSFTDYYINWVRQAPGKGLEWVARIFPGGDNTYYNEKFKGRFTLSADTSKSTAYLQMNSLRAEDTAVYYCARRGLYYAMDYWGQGTLVTVSS VL: DIQMTQSPSSLSASVGDRVTITCRSSQSLVHSNGIPYLHWYQQKPGKAPKLLIYRVSNRFSGVPSRFSGSGSGTDFTLTISSLQPEDFATYYCSQGTHVPPTFGQGTKVEIK",binds
19,"tilvestamab scFv-osmY F33S (scFv, V domains shown) VH: EVQLVESGGGLVQPGGSLRLSCAASGYSFTDSYINWVRQAPGKGLEWVARIFPGGDNTYYNEKFKGRFTLSADTSKSTAYLQMNSLRAEDTAVYYCARRGLYYAMDYWGQGTLVTVSS VL: DIQMTQSPSSLSASVGDRVTITCRSSQSLVHSNGIPYLHWYQQKPGKAPKLLIYRVSNRFSGVPSRFSGSGSGTDFTLTISSLQPEDFATYYCSQGTHVPPTFGQGTKVEIK",binds
20,"tilvestamab scFv-osmY D32A (scFv, V domains shown) VH: EVQLVESGGGLVQPGGSLRLSCAASGYSFTAFYINWVRQAPGKGLEWVARIFPGGDNTYYNEKFKGRFTLSADTSKSTAYLQMNSLRAEDTAVYYCARRGLYYAMDYWGQGTLVTVSS VL: DIQMTQSPSSLSASVGDRVTITCRSSQSLVHSNGIPYLHWYQQKPGKAPKLLIYRVSNRFSGVPSRFSGSGSGTDFTLTISSLQPEDFATYYCSQGTHVPPTFGQGTKVEIK",binds
